Test results: article PMC4538820, “The XRCC1 phosphate-binding pocket binds poly (ADP-ribose) and is required for XRCC1 function” (Nucleic Acids Research, 2015)

Assays:
[1] = biological target: ribosylated histone H1 (adsorbed to microwells, ribosylated with PARP1 and NAD+); assay: microwell plate binding assay (absorbance at 450 nm); conditions: read off a plot
[2] = biological target: mock-ribosylated histone H1 (adsorbed to microwells, no NAD+); assay: as above; conditions: 0 μM NAD+, read off a plot
[3] = biological target: T1, ribosylated PARP1 (adsorbed to microwells, ribosylated with PARP1 and NAD+) (human, UniProt P09874 1-1014, poly (ADP-ribosyl)ated by PARP1 in the presence of 1–50 μM NAD+; sites not stated); assay: ELISA; PARP1, histone H1 or BSA adsorbed to microwells (0.1 mg/ml in PBS), mock-ribosylated (no NAD+) or ribosylated with 5 nM PARP1 and 1–50 μM NAD+; 25 nM His-XRCC1 in 20 mM Tris pH7.5, 130 nM NaCl, 30 min on ice; detected with anti-His Mab and HRP secondary, A450; conditions: both partners purified
T1 construct: PARP1, poly (ADP-ribose) polymerase 1; 'recombinant, human, full length' is printed for the 5 nM PARP1 of the reaction; Species and form are printed for the PARP1 used as enzyme; I took the adsorbed PARP1 to be the same preparation; also called PARP1 +NAD+; autoribosylated PARP1; source: recombinant
T1 sequence (P09874 whole entry): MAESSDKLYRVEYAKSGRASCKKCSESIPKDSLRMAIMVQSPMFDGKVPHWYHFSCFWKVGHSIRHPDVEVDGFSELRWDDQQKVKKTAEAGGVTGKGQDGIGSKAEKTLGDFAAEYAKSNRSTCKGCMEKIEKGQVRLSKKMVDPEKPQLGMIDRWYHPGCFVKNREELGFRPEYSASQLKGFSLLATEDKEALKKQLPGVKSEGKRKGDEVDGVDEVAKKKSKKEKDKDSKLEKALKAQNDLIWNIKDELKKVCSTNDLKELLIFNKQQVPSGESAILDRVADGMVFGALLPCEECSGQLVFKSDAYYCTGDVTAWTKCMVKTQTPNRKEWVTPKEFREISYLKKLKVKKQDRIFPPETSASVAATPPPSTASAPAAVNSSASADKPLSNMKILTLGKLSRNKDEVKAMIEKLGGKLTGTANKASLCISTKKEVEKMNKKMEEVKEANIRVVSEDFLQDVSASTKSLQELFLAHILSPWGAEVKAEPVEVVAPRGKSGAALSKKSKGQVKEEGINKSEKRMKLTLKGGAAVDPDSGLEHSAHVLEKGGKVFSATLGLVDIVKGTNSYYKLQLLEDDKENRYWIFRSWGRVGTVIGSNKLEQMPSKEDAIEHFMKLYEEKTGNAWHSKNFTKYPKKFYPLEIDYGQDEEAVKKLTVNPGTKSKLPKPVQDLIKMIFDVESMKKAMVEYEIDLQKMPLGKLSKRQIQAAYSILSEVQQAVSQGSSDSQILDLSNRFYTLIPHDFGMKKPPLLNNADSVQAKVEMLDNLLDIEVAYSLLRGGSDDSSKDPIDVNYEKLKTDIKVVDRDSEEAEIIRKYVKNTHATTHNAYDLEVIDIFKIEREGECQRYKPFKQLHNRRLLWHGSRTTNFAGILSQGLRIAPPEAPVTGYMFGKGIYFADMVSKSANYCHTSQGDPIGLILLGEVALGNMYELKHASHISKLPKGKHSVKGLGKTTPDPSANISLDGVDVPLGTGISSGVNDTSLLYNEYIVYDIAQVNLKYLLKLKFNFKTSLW

Molecule | response ([1]; adsorbed histone H1 ribosylated with 1 μM NAD+, parent: est. 1.7) [Abs 450nm] | response ([1]; adsorbed histone H1 ribosylated with 10 μM NAD+, parent: est. 2.1) [Abs 450nm] | response ([1]; adsorbed histone H1 ribosylated with 50 μM NAD+, parent: est. 2.2) [Abs 450nm] | response ([1]; left panel, calf thymus histone ribosylated with 0.5 μM NAD+, no competitor, parent: est. 0.82) [Abs 450nm] | response ([2]; adsorbed histone H1 mock-ribosylated, parent: est. 0.11) [Abs 450nm] | response ([2]; left panel, calf thymus histone mock-ribosylated, no competitor, parent: est. 0.10) [Abs 450nm] | binding result [3]
His-XRCC1^161–406 (from UniProt P18887) R335A; K369A | 0.12 | 0.78 | 1.2 | 0.11 | 0.1 | 0.12 | –
His-XRCC1^161–406 (domain or fragment, human, UniProt P18887 161-406, looked up, Vector pTWO-E (from pET-17b) adds an N-terminal His6 tag that can be cleaved by rhinovirus 3C; also called wild-type histidine-tagged fragment of human XRCC1 spanning the conserved BRCT1 domain; source: E. coli Rosetta2 (DE3)pLysS, purified (Talon resin, heparin column); not shown: His6, N-terminal, kept) PSQKVTVTKLGQFRVKEEDESANSLRPGALFFSRINKTSPVTASDPAGPSYAAATLQASSAASSASPVSRAIGSTSKPQESPKGKRKLDLNQEEKKTPSKPPAQLSPSVPKRPKLPAPTRTPATAPVPARAQGAVTGKPRGEGTEPRRPRAGPEELGKILQGVVVVLSGFQNPFRSELRDKALELGAKYRPDWTRDSTHLICAFANTPKYSQVLGLGGRIVRKEWVLDCHRMRRRLPSQRYLMAGP | – | – | – | – | – | – | binds
